Experiments:
Saccharomyces cerevisiae [1] = experiment: protein stability index of tFT-peptide fusion in wild type (PSI (0-1 scale)); higher = more stable (slower turnover); conditions: genetic background: wild type
Description: (§1)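 MPS profiling in S. cerevisiae of two library types built from selected 12-aa C-degron peptides (IN1, IN2, LN1, LN3, VN2, R1-R5, W1-W3, Atg1 and Rpa12 C-termini): saturation mutagenesis libraries and C-terminal +1 capping libraries (13 aa). Each peptide is fused to the C-terminus of a sfGFP-mCherry timer, after a GGGS linker. Cells are FACS-sorted into 8 mCherry/sfGFP bins and sequenced. PSI runs from 0 (unstable) to 1 (stable), measured once in wild type and in the das1Δ or doa10Δ background.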

Saccharomyces cerevisiae [2] = experiment: protein stability index of tFT-peptide fusion in deletion strain of DOA10 (PSI (0-1 scale)); higher = more stable (slower turnover)
Description: as §1
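Wherever protein stability index of tFT-peptide fusion in deletion strain of DOA10 is given: PSI per variant is the weighted mean of its sequencing read distribution over the sorted stability bins, counting only variants with over 10 reads summed across bins.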
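Wherever protein stability index of tFT-peptide fusion in wild type is given: PSI derived as read-weighted mean over the 8 sorting bins, only variants exceeding 10 total reads kept, mCherry placed adjacent to the peptide and sfGFP distal.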

| Sequence | protein stability index (Saccharomyces cerevisiae [1]) | protein stability index (Saccharomyces cerevisiae [2]) |
| --- | --- | --- |
| CLVGLPILLFFR | 0.0666 | 0.589 |
| AITLPLCPLLLR | 0.19 | 0.647 |
| CFVSLPILLFFR | 0.0595 | 0.579 |
| RVTRLDAIYERI | 0.67 | 0.708 |
| GLYMCSVGCWFI | 0.44 | 0.585 |
| RSLRVLLPLWFR | 0.459 | 0.67 |
| GLYDCSVGCWFR | 0.56 | 0.716 |
| RVTRLDAIAFRI | 0.673 | 0.708 |
| GLYMCEVGCWFR | 0.485 | 0.642 |
| MLVSLPILLFFR | 0.089 | 0.565 |
| CVVSLPILLFFR | 0.0506 | 0.589 |
| ALVSLPILLFFR | 0.0758 | 0.653 |
| AITLPMCPLYLR | 0.135 | 0.675 |
| FITLPMCPLLLR | 0.333 | 0.61 |
| RSLRCLLPLYFR | 0.408 | 0.681 |
| RSLRVLLPLYFRN | 0.204 | 0.5 |
| AITLAMCPLLLR | 0.418 | 0.65 |
| GLYMPSVGCWFR | 0.196 | 0.683 |
| NITLPMCPLLLR | 0.359 | 0.664 |

| Sequence | protein stability index (Saccharomyces cerevisiae [1]) | protein stability index (Saccharomyces cerevisiae [2]) |
| --- | --- | --- |
| AITLPMCPLLLA | 0.269 | 0.313 |
| KVTRLDAIYFRI | 0.251 | 0.67 |
| RVTRLDAIYFNI | 0.572 | 0.703 |
| CDVSLPILLFFR | 0.0512 | 0.648 |
| GLYMCSVGCWFD | 0.471 | 0.518 |
| AHTLPMCPLLLR | 0.346 | 0.664 |
| AITLPMCPLLLE | 0.618 | 0.652 |
| CLVSLPIQLFFR | 0.0792 | 0.658 |
| GCYMCSVGCWFR | 0.326 | 0.667 |
| AETLPMCPLLLR | 0.55 | 0.697 |
| ASLRVLLPLYFR | 0.285 | 0.666 |
| CLVSLPILLFGR | 0.492 | 0.523 |
| RVKRLDAIYFRI | 0.392 | 0.64 |
| AITLPMMPLLLR | 0.187 | 0.639 |
| RSGRVLLPLYFR | 0.372 | 0.665 |
| CLVPLPILLFFR | 0.0703 | 0.57 |
| CLVSLRILLFFR | 0.152 | 0.282 |
| CLVSLPINLFFR | 0.0948 | 0.682 |
| GQYMCSVGCWFR | 0.363 | 0.673 |

| Sequence | protein stability index (Saccharomyces cerevisiae [1]) | protein stability index (Saccharomyces cerevisiae [2]) |
| --- | --- | --- |
| RVTRLNAIYFRI | 0.229 | 0.496 |
| AITLPMCPVLLR | 0.322 | 0.623 |
| RSLRVLSPLYFR | 0.308 | 0.691 |
| RSLRVRLPLYFR | 0.187 | 0.675 |
| GLYMCQVGCWFR | 0.308 | 0.641 |
| AITLPMCGLLLR | 0.243 | 0.63 |
| CLKSLPILLFFR | 0.083 | 0.618 |
| CLVSLPILLFFG | 0.447 | 0.52 |
| RVTRLDAIYFRE | 0.676 | 0.725 |
| AITLPMCILLLR | 0.091 | 0.603 |
| RVTRHDAIYFRI | 0.517 | 0.689 |
| CLVALPILLFFR | 0.0608 | 0.512 |
| AIPLPMCPLLLR | 0.28 | 0.653 |
| RVTRLDAICFRI | 0.656 | 0.713 |
| GLYMSSVGCWFR | 0.299 | 0.688 |
| GLYMCSVGCWFM | 0.543 | 0.586 |
| GLYMCSVPCWFR | 0.646 | 0.682 |
| AITLPMCPDLLR | 0.669 | 0.677 |
| CLLSLPILLFFR | 0.0527 | 0.571 |

— the supplement of paper PMC10724198
